“And” between values parts separate entries of the source, which are not always exact repeats. Equal entries are not always repeated. Where two headings read alike, the source gives them in different places.
Tests used:
Test in all cases: cell-based or functional assay
[1] = molecular target: CXCR1 (UniProt P25024)
[2] = molecular target: Kv1.3 (human) (UniProt P22001)
[3] = molecular target: CXCR1 (UniProt P25024); remark: listed apart in the source

Chain of Kv1.3 (human) (P22001 whole entry): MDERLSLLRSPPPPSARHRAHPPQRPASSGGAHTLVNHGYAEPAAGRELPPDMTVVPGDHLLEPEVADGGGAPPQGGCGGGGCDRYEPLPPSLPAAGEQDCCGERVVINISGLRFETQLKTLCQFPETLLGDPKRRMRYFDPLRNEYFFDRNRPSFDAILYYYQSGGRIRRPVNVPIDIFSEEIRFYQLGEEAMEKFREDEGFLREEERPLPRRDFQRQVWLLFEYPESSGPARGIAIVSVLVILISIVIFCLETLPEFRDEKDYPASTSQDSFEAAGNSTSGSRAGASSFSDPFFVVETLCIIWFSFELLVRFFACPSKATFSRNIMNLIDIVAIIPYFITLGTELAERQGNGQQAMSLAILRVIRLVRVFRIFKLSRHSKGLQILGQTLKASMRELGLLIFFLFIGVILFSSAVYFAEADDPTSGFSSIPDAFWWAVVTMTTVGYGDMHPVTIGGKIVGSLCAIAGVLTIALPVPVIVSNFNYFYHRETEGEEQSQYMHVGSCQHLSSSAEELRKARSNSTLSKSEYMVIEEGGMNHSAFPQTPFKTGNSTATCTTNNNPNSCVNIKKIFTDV
Chain of CXCR1 (P25024 whole entry): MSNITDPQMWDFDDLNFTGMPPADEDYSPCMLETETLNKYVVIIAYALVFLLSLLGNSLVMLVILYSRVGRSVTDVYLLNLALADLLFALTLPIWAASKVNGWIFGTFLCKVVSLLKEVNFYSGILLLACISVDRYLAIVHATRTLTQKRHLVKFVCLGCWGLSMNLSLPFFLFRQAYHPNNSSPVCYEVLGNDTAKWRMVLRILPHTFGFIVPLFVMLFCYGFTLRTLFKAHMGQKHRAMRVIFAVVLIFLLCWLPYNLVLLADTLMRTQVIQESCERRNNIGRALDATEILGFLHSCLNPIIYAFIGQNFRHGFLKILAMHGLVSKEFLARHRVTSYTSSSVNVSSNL
Chain of interleukin 8 (soluble) (P10145 28-99 limits assumed): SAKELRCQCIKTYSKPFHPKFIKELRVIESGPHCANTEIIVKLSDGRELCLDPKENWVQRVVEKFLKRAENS

An average RLU at 0.001 nM IgG [1] of 7500 RLU, an average RLU at 0.004 nM IgG [1] of 7390 RLU and an average RLU at 0.013 nM IgG [1] of 7050 RLU were found for “IgG VH4-4 CDR3 BsaI (lacking the IL-8 insert) (antibody)” in this work. For the same substance, the average RLU at 0.040 nM IgG [1] was 6970 RLU, the average RLU at 0.120 nM IgG [1] was 7330 RLU and the average RLU at 0.359 nM IgG [1] was 6690 RLU. It also gave an average RLU at 1.076 nM IgG [1] of 7180 RLU, an average RLU at 3.228 nM IgG [1] of 7030 RLU and an average RLU at 9.685 nM IgG [1] of 7170 RLU. The average RLU at 29.056 nM IgG [1] was 7100 RLU, the average RLU at 87.167 nM IgG [1] was 7140 RLU and the average RLU at 261.500 nM IgG [1] was 7540 RLU.
An IL-2 ELISA (A450); Donor 1; 150 nM IgG [2] of 0.445 A450, an IL-2 ELISA (A450); Donor 2; 150 nM IgG [2] of 0.355 A450 and a TNF-α ELISA (A450); Donor 1; 150 nM IgG [2] of 0.11 A450 were found for BLV1H12 (antibody) in this work. The TNF-α ELISA (A450); Donor 2; 150 nM IgG [2] was 0.058 A450.
An average RLU at 0.01 nM [1] of 440 RLU, an average RLU at 0.08 nM [1] of 504 RLU and an average RLU at 0.23 nM [1] of 940 RLU were found for “interleukin 8 (soluble) (from UniProt P10145 28-99) (ligand)” in this work. The average RLU at 0.69 nM [1] was 1940 RLU, the average RLU at 2.06 nM [1] was 4110 RLU and the average RLU at 6.17 nM [1] was 5870 RLU. It also gave an average RLU at 18.52 nM [1] of 7300 RLU, an average RLU at 31.5 nM [1] of 55500 RLU and an average RLU at 55.56 nM [1] of 7360 RLU. It also gave an average RLU at 166.67 nM [1] of 6770 RLU, an average RLU at 500.00 nM [1] of 5720 RLU and a luminescence at 0.1 nM IL-8 domains [1] of 4200. It also gave a luminescence at 0.4 nM IL-8 domains [1] of 6530, a luminescence at 0.5 nM IL-8 domains [1] of 9790 and a luminescence at 1.6 nM IL-8 domains [1] of 12200. The luminescence at 2.2 nM IL-8 domains [1] was 25700, the luminescence at 6.25 nM IL-8 domains [1] was 28600 and the luminescence at 9.9 nM IL-8 domains [1] was 50300. The luminescence at 25 nM IL-8 domains [1] was 50500, the luminescence at 44 nM IL-8 domains [1] was 54100 and the luminescence at 100 nM IL-8 domains [1] was 70200. The luminescence at 200 nM IL-8 domains [1] was 50400, the luminescence at 0.4 nM IL-8 domains [3] was 4930 and the luminescence at 1.6 nM IL-8 domains [3] was 8730. The luminescence at 6.25 nM IL-8 domains [3] was 22300, the luminescence at 25 nM IL-8 domains [3] was 42200 and the luminescence at 100 nM IL-8 domains [3] was 54000.
Negative Control IgG (antibody) was tested, and the IL-2 ELISA (A450), Donor 1, [IgG] 0.01 nM [2] was 2 A450 and 2.15 A450, the IL-2 ELISA (A450), Donor 1, [IgG] 0.75 nM [2] was 2.11 A450 and 2.04 A450 and the IL-2 ELISA (A450), Donor 1, [IgG] 68 nM [2] was 1.48 A450 and 1.55 A450. The IL-2 ELISA (A450), Donor 2, [IgG] 0.01 nM [2] was 1.61 A450 and 1.48 A450, the IL-2 ELISA (A450), Donor 2, [IgG] 0.75 nM [2] was 1.56 A450 and 1.52 A450 and the IL-2 ELISA (A450), Donor 2, [IgG] 68 nM [2] was 1.5 A450 and 1.37 A450. For the same substance, the TNF-α ELISA (A450), Donor 1, [IgG] 0.01 nM [2] was 1.62 A450 and 1.66 A450, the TNF-α ELISA (A450), Donor 1, [IgG] 0.75 nM [2] was 1.69 A450 and 1.65 A450 and the TNF-α ELISA (A450), Donor 1, [IgG] 68 nM [2] was 1.02 A450 and 1.13 A450. The TNF-α ELISA (A450), Donor 2, [IgG] 0.01 nM [2] was 2.07 A450 and 1.77 A450, the TNF-α ELISA (A450), Donor 2, [IgG] 0.75 nM [2] was 2.04 A450 and 1.85 A450 and the TNF-α ELISA (A450), Donor 2, [IgG] 68 nM [2] was 1.88 A450 and 1.54 A450.

Reference: US20160159928A1
